Results reported in patent publication US20140005241 (The Curators of the University of Missouri, published 2014).

Target: SARS-CoV nsp13 helicase (SARS coronavirus, UniProt P0C6X7 P0C6X7:5302-5902)
Assay: EMSA
Settings: tags: GST (baculovirus) or His6; label: 5'-Cy3; 20 nt 5' overhang, 40 bp duplex

B1: 60/40-mer (20ss:40ds) DNA (dsDNA)
DNA 1: TAGATAGCATTAGATAGCCACAGATAGCATCCTAGATAGCATTGGTGCTCGAACAGTGAC
DNA 2: GTCACTGTTCGAGCACCAATGCTATCTAGGATGCTATCTG
binding result: binds
